Legend:
[1] = test system: human thrombin generation (relipidated TF, normal pooled plasma); experiment: Thrombin generation assay (TGA); type: biochemical; settings: 100 nM antibody, Example 18
Description: (§1) The TGA assay was performed using the calibrated-automated-thrombogram (CAT) instrument manufactured and distributed by STAGO. The test method design was equivalent to a standard CAT assay measurement, except that the plasma source was NPP in citrate/CTI. […] Relipidated TF was added to a 96-well assay plate, followed by addition of the antibody/NPP mixture. After a 10-min incubation or directly after combining the relipidated TF with antibody/NPP, thrombin generation was initiated by the addition of calcium and the thrombin substrate. The STAGO software was used to report the following parameters: Peak IIa (highest thrombin concentration generated [nM]); Lag Time (time to IIa generation [min]); ETP (endogenous thrombin potential, area under the curve [nM×min]); and ttPeak (time to Peak IIa [min]).
as §1, with “was normal pooled plasma (NPP)” for “was NPP”, “in citrate supplemented with corn trypsin inhibitor (citrate/CTI).” for “in citrate/CTI.”
TGA assay was performed using the calibrated-automated-thrombogram (CAT) instrument manufactured and distributed by STAGO (Diagnostica Stago SAS, Asnieres sur Seine, France). […] The anti-TF antibodies were titrated at 0, 10, 50 and 100 nM and mixed with NPP in citrate/CTI. Relipidated TF was added to a 96-well assay plate, followed by addition of the antibody/NPP mixture. After a 10-min incubation or directly after combining the relipidated TF with antibody/NPP, thrombin generation was initiated by the addition of calcium and the thrombin substrate. The STAGO software was used to report the following parameters: Peak IIa (highest thrombin concentration generated on the thrombin generation curve [nM]); Lag Time (time from assay start to the moment 10 nM of thrombin is formed [min]); ETP (endogenous thrombin potential, area under the curve [nM×min]); and ttPeak (time from assay start to Peak IIa [min]). […] As used herein, the term “thrombin generation assay” (TGA) refers to the TGA used in this example.

[2] = target: T1, TF:FVIIa on MDA-MB-231 cells (Homo sapiens, UniProt P13726); experiment: FXa conversion assay; type: cell-based; settings: concentrations of 25, 50, and 100 nM; FIG. 14A
T1 construct: MDA-MB-231 cells (ATCC, Manassas, Va., USA) were plated; host or cells: MDA-MB-231
Description: To evaluate the ability of TF:FVIIa to convert FX into FXa in the presence of human antibodies against TF, 5×10^4 MDA-MB-231 cells (ATCC, Manassas, Va., USA) were plated into tissue culture-treated black 96-well plates (Greiner Bio-One, Monroe, N.C., USA). […] Upon reconstitution of the binary TF:FVIIa complex with a final concentration of 20 nM of FVIIa, cells were incubated for 5 min at 37° C.
Briefly, 5×10^4 MDA-MB-231 cells (ATCC, Manassas, Va., USA) were plated into tissue culture-treated black 96-well plates (Greiner Bio-One, Monroe, N.C., USA) and cultured overnight. […] Upon reconstitution of the binary TF:FVIIa complex with a final concentration of 20 nM of FVIIa, cells were incubated for 5 min at 37° C.

[3] = target: T2, human TF on MDA-MB-231 cells (FVII-Fc binding) (Homo sapiens, UniProt P13726); experiment: FVIIa competition assay; settings: highest concentration of antibody; FIG. 14B
T2 construct: TF-positive MDA-MB-231 cells (ATCC, Manassas, Va., USA); host or cells: MDA-MB-231
Description: To evaluate competition between FVIIa and the human antibodies against TF, TF-positive MDA-MB-231 cells (ATCC, Manassas, Va., USA) were first incubated for 1 hr on ice with a titration of the human antibodies against TF. Subsequently, a final concentration of 20 nM of FVII-Fc conjugated to Alexa488 was added to the antibody cell mixture. After another 1 hr incubation on ice, cells were washed, stained with a viability dye, and analyzed by flow cytometry. The Alexa488 fluorescence data from viable cells was summarized using median fluorescence intensity.
Subsequently, FVII-Fc conjugated to Alexa488 was added to the antibody-cell mixture at a final concentration of 20 nM. After another 1 hr incubation on ice, cells were washed, stained with a viability dye, and analyzed by flow cytometry. The Alexa488 fluorescence data from viable cells was summarized using median fluorescence intensity (MFI).

[4] = target: T3, human TF on MDA-MB-231 cells (39A-Alexa488 binding) (Homo sapiens, UniProt P13726); experiment: Antibody competition assay with 39A; settings: pre-incubation with unlabeled competitor antibody
T3 construct: TF-positive MDA-MB-231 cells (ATCC, Manassas, Va., USA); host or cells: MDA-MB-231
Description: Alexa Fluor antibodies were generated using Alexa Fluor 488 5-sulfo-[…] esters (ThermoFisher Scientific) following manufacturer's protocol. Excess Alexa Fluor dye was removed from the antibody dye conjugate preparations by gel filtration (ThermoFisher Scientific).
After another 1 hr incubation on ice, cells were washed, stained with a viability dye, and analyzed by flow cytometry. The Alexa488 fluorescence data from viable cells was summarized using median fluorescence intensity.

[5] = target: T4, human, rat and chimeric human-rat TF constructs expressed on HEK293 cells (Homo sapiens, UniProt P13726, D177Q/S174T); experiment: Live cell staining assay on chimeric TF constructs (epitope binning); type: cell-based; settings: construct h140-145_r (2), human segment replaced by rat segment
T4 construct: expressed in transfected cells; host or cells: HEK293
Description: (§2) To establish binding of the anti-human TF antibodies to the various TF constructs, HEK293 cells were transfected with a DNA plasmid that co-expresses the TF construct and a green fluorescent protein marker. […] Two days after transfection, cells were collected from the tissue culture plate, stained with 15 μg/ml of the indicated anti-TF antibody, washed, stained with anti-human IgG-Fc Alexa Fluor 647 polyclonal antibody, washed, and stained with the viability dye 4′,6-Diamidino-2-Phenylindole, Dihydrochloride. Upon acquisition of 80,000 live events on a flow cytometer, live cells marked with the fluorescent marker were analyzed for the degree of staining by the anti-TF antibody. […] As used herein, the term “live cell staining assay” refers to the antibody binding assay used in this example.
(§3) When “Percentage antibody binding to TF construct relative to hTF” in Tables 51 and 52 was less than 50%, the antibody was considered a non-binder (0) in Tables 53 and 54.
(§4) Each antibody was assigned to an epitope bin in Table 55 based on the combination of unbound constructs from Table 53.

[6] = target: T5, human, rat and chimeric human-rat TF constructs expressed on HEK293 cells (Homo sapiens, UniProt P13726, I184G/T186I/W190R/Y188T); experiment: as above; type: cell-based; settings: construct h152-158_r (4), human segment replaced by rat segment
T5 construct: expressed in transfected cells; host or cells: HEK293
Description: as §2, §3, §4

[7] = target: T6, human, rat and chimeric human-rat TF constructs expressed on HEK293 cells (Homo sapiens, UniProt P13726, K100N); experiment: as above; type: cell-based; settings: construct hTF_K68N
T6 construct: expressed in transfected cells; host or cells: HEK293
Description: as §2, §3, §4

[8] = target: T7, human, rat and chimeric human-rat TF constructs expressed on HEK293 cells (Homo sapiens, UniProt P13726, K181N); experiment: as above; type: cell-based
T7 construct: expressed in transfected cells; host or cells: HEK293
Description: as §2, §3, §4

[9] = target: T8, human, rat and chimeric human-rat TF constructs expressed on HEK293 cells (Homo sapiens, UniProt P13726, N203H/T229K); experiment: as above; type: cell-based; settings: construct hTF_N171H_T197K
T8 construct: expressed in transfected cells; host or cells: HEK293
Description: as §2, §3, §4

## TF-011 [reference compound]
[1]; 10 min antibody pre-incubation
  reduction of the peak IIa concentration: 91%
[1]; without antibody pre-incubation
  reduction of the peak IIa concentration: 91%
[2]
  inhibition of FX conversion: 57-59%
[3]
  competition with FVII: effectively competed
[4]
  % 39A binding: reduced
[5]
  Antibody binding to TF construct: 1 (between 50% and 150%, the antibody was considered a binder (1))
[6]
  Antibody binding to TF construct: 1 (between 50% and 150%, the antibody was considered a binder (1))
[7]
  Antibody binding to TF construct: 1 (between 50% and 150%, the antibody was considered a binder (1))
[8]; construct h146-151_r (1), human segment replaced by rat segment
  Antibody binding to TF construct: 1 (between 50% and 150%, the antibody was considered a binder (1))
[8]; construct hTF_K149N
  Antibody binding to TF construct: 1 (between 50% and 150%, the antibody was considered a binder (1))
[9]
  Antibody binding to TF construct: 1 (between 50% and 150%, the antibody was considered a binder (1))
